B1: 22241 (protein)
chain: MALPVTALLLPLALLLHAARPDIQMTQSPSSLSASVGDRVTITCKASDHINNWLAWYQQKPGQAPKLLIYGATTLETGVPSRFSGSGSGTDYTLTISSLQPEDFATYYCQQSWNTPWTFGQGTKLEIKRLEDLKNVFPPEVAVFEPSEAEISHTQKATLVCLATGFYPDHVELSWWVNGKEVHSGVCTDPQPLKEQPALNDSRYCLSSRLRVSATFWQNPRNHFRCQVQFYGLSENDEWTQDRAKPVTQIVSAEAWGRADCGFTSESYQQGVLSATILYEILLGKATLYAVLVSALVLMAMVKRKDSRGRAKRSGSGATNFSLLKQAGDVEENPGPTSATMDWIWRILFLVGAATGAHSYINIYNAEPANPSEKNSPSTQYAYGSGSSYINIYNAEPANPSEKNSPSTQYAYGSGGSYINIYNAEPANPSEKNSPSTQYAYGSGSSSYINIYNAEPANPSEKNSPSTQYAYGSGSGSYINIYNAEPANPSEKNSPSTQYAYGPSGSGGGGSGGGGSGGGGSFEQVQLQQPGAELVKPGASVKMSCKASGYAFSSYWINWMKQKPGQGLEWIGQIYPGDGDTNYNGKFKGRATLTADTSSSTAYMQLSSLTSEDSAVYFCARSITTVVGCAMDYWGQGTSVTVSSTRIQNPDPAVYQLRDSKSSDKSVCLFTDFDSQTNVSQSKDSDVYITDKCVLDMRSMDFKSNSAVAWSNKSDFACANAFNNSIIPEDTFFPSPESSCDVKLVEKSFETDTNLNFQNLSVIGFRILLLKVAGFNLLMTLRLWSSRAKRSGSGVKQTLNFDLLKLAGDVESNPGPSRGHMTEYKPTVRLATRDDVPRAVRTLAAAFADYPATRHTVDPDRHIERVTELQELFLTRVGLDIGKVWVADDGAAVAVWTTPESVEAGAVFAEIGPRMAELSGSRLAAQQQMEGLLAPHRPKEPAWFLATVGVSPDHQGKGLGSAVVLPGVEAAERAGVPAFLETSAPRNLPFYERLGFTVTADVEVPEGPRTWCMTRKPGA
B2: 22240 (protein)
chain: MALPVTALLLPLALLLHAARPDIQMTQSPSSLSASVGDRVTITCKASDHINNWLAWYQQKPGQAPKLLIYGATTLETGVPSRFSGSGSGTDYTLTISSLQPEDFATYYCQQSWNTPWTFGQGTKLEIKRLEDLKNVFPPEVAVFEPSEAEISHTQKATLVCLATGFYPDHVELSWWVNGKEVHSGVCTDPQPLKEQPALNDSRYCLSSRLRVSATFWQNPRNHFRCQVQFYGLSENDEWTQDRAKPVTQIVSAEAWGRADCGFTSESYQQGVLSATILYEILLGKATLYAVLVSALVLMAMVKRKDSRGRAKRSGSGATNFSLLKQAGDVEENPGPTSATMDWIWRILFLVGAATGAHSGPYINIYNAEPANPSEKNSPSTQYAYGGGSQLGPYELWELSHGSGGSGGGGSGGGGSGGGGSFEQVQLQQPGAELVKPGASVKMSCKASGYAFSSYWINWMKQKPGQGLEWIGQIYPGDGDTNYNGKFKGRATLTADTSSSTAYMQLSSLTSEDSAVYFCARSITTVVGCAMDYWGQGTSVTVSSTRIQNPDPAVYQLRDSKSSDKSVCLFTDFDSQTNVSQSKDSDVYITDKCVLDMRSMDFKSNSAVAWSNKSDFACANAFNNSIIPEDTFFPSPESSCDVKLVEKSFETDTNLNFQNLSVIGFRILLLKVAGFNLLMTLRLWSSRAKRSGSGVKQTLNFDLLKLAGDVESNPGPSRGHMTEYKPTVRLATRDDVPRAVRTLAAAFADYPATRHTVDPDRHIERVTELQELFLTRVGLDIGKVWVADDGAAVAVWTTPESVEAGAVFAEIGPRMAELSGSRLAAQQQMEGLLAPHRPKEPAWFLATVGVSPDHQGKGLGSAVVLPGVEAAERAGVPAFLETSAPRNLPFYERLGFTVTADVEVPEGPRTWCMTRKPGA

Test system: RAJI cells
Assay: JNG assay, co-culture with RAJI cells
Assay type: cell-based
Details: JNG cells expressing construct, co-culture with Raji
Method in brief: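 Jurkat NFAT-GFP (JNG) cells stably transduced with SARs by lentivirus, with drug selection where the construct carried a resistance gene, then co-cultured with target cells at E:T ~1:2 for ~4–18 h. % GFP-positive cells measured by FACS against parental JNG; +/- to 5+ correspond to ~5–50% GFP-positive.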

| Molecule | NFAT-GFP ASSAY: Raji |
| --- | --- |
| B1 | Raji (4+) (refer to approximately 5%, 10%, 20%, 30%, 40% and 50% GFP positive cells) |
| B2 | Raji (3+) (refer to approximately 5%, 10%, 20%, 30%, 40% and 50% GFP positive cells) |

Source: patent publication US20230212319A1, “NOVEL ANTIGEN BINDING DOMAINS AND SYNTHETIC ANTIGEN RECEPTORS INCORPORATING THE SAME” (University of Southern California, priority 2020, published 2023)
